# From publication PMC6435475, “Structural and functional characterisation of the entry point to pyocyanin biosynthesis in Pseudomonas aeruginosa defines a new 3-deoxy-D-arabino-heptulosonate 7-phosphate synthase subclass” (Bioscience Reports, 2018)
# B1: PaeDAH7PS^PA1901 (3-deoxy-D-arabino-heptulosonate 7-phosphate synthase encoded by phzC, Pseudomonas aeruginosa PAO1) (enzyme)
# chain: MDDLLQRVRRCEALQQPEWGDPSRLRDVQAYLRGSPALIRAGDILALRATLARVARGEALVVQCGDCAEDMDDHHAENVARKAAVLELLAGALRLAGRRPVIRVGRIAGQYAKPRSKPHEQVGEQTLPVYRGDMVNGREAHAEQRRADPQRILKGYAAARNIMRHLGWDAASGQEANASPVWTSHEMLLLDYELSMLREDEQRRVYLGSTHWPWIGERTRQVDGAHVALLAEVLNPVACKVGPEIGRDQLLALCERLDPRREPGRLTLIARMGAQKVGERLPPLVEAVRAAGHPVIWLSDPMHGNTIVAPCGNKTRLVRSIAEEVAAFRLAVSGSGGVAAGLHLETTPDDVTECVADSSGLHQVSRHYTSLCDPRLNPWQALSAVMAWSGAEAIPSATFPLETVA
# notes: 3-deoxy-D-arabino-heptulosonate 7-phosphate synthase (type II DAH7PS) encoded by phzC, ORF PA1901 (duplicated as PA4212), Pseudomonas aeruginosa PAO1; the ORF was amplified from gDNA; residues up to 405 are named; measured mass of a single chain 44470 Da (calculated 44468 Da); Homodimer in solution at low concentration (AUC, SEC-SAXS); homotetramer in the crystal and at high concentration in …
# What was measured:
# C=C(OP(=O)(O)O)C(=O)O = experiment: purified protein; details: E4P 150 μM, Co2+ 100 μM, pH 7.5, 37 °C
# Text: (§1) initial-rate UV-Vis spectrophotometric assay on PaeDAH7PS^PA1901 (type II DAH7PS, phzC)
# [1] = tested on: O=C[C@H](O)[C@H](O)COP(=O)(O)O; experiment: purified protein; details: PEP 150 μM, Co2+ 100 μM, pH 7.5, 37 °C
# Text: as §1
# [2] = target: the molecule itself; experiment: SEC-SAXS; injection concentration 8.0 mg/ml (180 uM; also 5.0 mg/ml), Superdex S200, 50 mM bis-tris propane pH 7.5, 100 uM cobalt chloride, 200 uM PEP, 5% glycerol, 293 K; elution peak deconvoluted into two Gaussian components (peaks A and B)
# [3] = target: the molecule itself; experiment: crystal structure; microbatch crystallisation, protein 3-5 mg/ml (67-112 uM), 0.2 M sodium fluoride, 1 mM cobalt chloride, 1 mM PEP, 18% PEG 3350, 278 K; space group C222(1), two chains in the asymmetric unit, tetramer by a two-fold crystallographic symmetry operation
Molecule,Km (C=C(OP(=O)(O)O)C(=O)O) [µM],kcat (C=C(OP(=O)(O)O)C(=O)O) [s⁻¹],kcat/Km (C=C(OP(=O)(O)O)C(=O)O) [M⁻¹ s⁻¹],Km [1] [µM],kcat [1] [s⁻¹],kcat/Km [1] [M⁻¹ s⁻¹],stoichiometry N [2],stoichiometry N [3]
"PaeDAH7PS^PA1901 (type II DAH7PS, phzC) (Pseudomonas aeruginosa PAO1)",17 ± 1,19.8 ± 0.4,1.16e+06 ± 100000,16 ± 3,19.8 ± 0.4,1.24e+06 ± 150000,–,–
B1,–,–,–,–,–,–,2,4
